B1: Ab082 (antibody, IgG2, V domains shown)
VH: QMQLVQSGAEVKKPGESLKISCKGSGYSFTSYWIGWVRQMPGKGLEWMGIIYPGDSDTRYSPSFQGQVTISADKSISTAYLQWSSLKASDTAMYYCARWGPDAFDIWGQGTMVTVSS
VL: EIVLTQSPDFQSVTPKETVTISCRASQNIGVSLHWYQQKPDQSPKVLIKYASQSLSGVPSRFSGTGSGTDFTLTIKSLEAEDAATYYCLQTSSLPWTFGQGTKVEIK
notes: also called XPA.015.248
B2: Ab071 (antibody, IgG2, V domains shown)
VH: EVQLVQSGAEVKKPGESLKISCKGSGYSFTSYWIGWVRQMPGKGLEWMGIIYPGDSDTRYSPSFQGQVTISADKSISTAYLQWSSLKASDTAMYYCARWDAGYSPWGQGTLVTVSS
VL: SSELTQDPAVSVALGQTVRITCQGDSLRSYYASWYQQKPGQAPVLVFYGKNNRPSGIPGRFSGSKSGNTASLTITGAQAEDEADYYCNSRDSSGNHWVFGGGTKLTVL
notes: also called XPA.015.227
B3: Ab072 (antibody, IgG2, V domains shown)
VH: QMQLVQSGAEVKKPGESLKISCKGSGYSFTGYWIGWVRQMPGKGLEWMGIIYPGDSDTRYSPSFQGQVTISADKSISTAYLQWSSLKVSDTAMYYCGRISTPYAFDIWGQGTMVTVSS
VL: SYVLTQPPSASGTPGQRVTISCSGSNSNIGSNFVTWYQQLPGAAPKLLIYTNSQRPSGVPDRFSGSRSGTSASLAISGLQSEDEADYFCAAWDDSLNGPVFGGGTQLTVL
notes: also called XPA.015.228
B4: Ab055 (antibody, IgG2, V domains shown)
VH: QVQLVQSGAEVKKPGSSVKVSCKASGGTFSSYAISWVRQAPGQGLEWMGGIIPIFGTANYAQKFQGRVTITADESTSTAYMELSSLRSEDTAVYYCARGQGWLRFYGMDVWGQGTTVTVSS
VL: SYELTQLPSVSVSPGQTARITCSGDALPNKYAYWYQQKSGQAPVLVIYEDTRRPSEIPERFSASSSGTMATLTISGAQVEDEAEYYCYSTDSSGNERVFGGGTKLTVL
notes: also called XPA.015.198
B5: Ab058 (antibody, IgG2, V domains shown)
VH: QLQLQQWGAGLLKPSETLSLTCAVYSGSFSGYYYSWIRQSPGRGLEWIGDISHTGSTDYNPSLKTRVTISVDTSKNQFSLNLNSVTAADTAVYYCARDAPKGGSGLYLFDYWGQGTLVTVSS
VL: QSVLTQPPSVSGAPGQRVTISCTGSRSNIGADHDVHWYQQIPGRAPKLLIYGNSNRPSGVPDRFSGSRSGTSASLAITGLQAEDEADYYCQSYDNSLSGSVFGGGTKLTVL
notes: also called XPA.015.202

Key:
[1] = molecular target: T1, mouse insulin receptor complexed with human insulin (mouse; human, UniProt P15208 28-1372; P01308 25-54; P01308 90-110); assay: FACS, CHO-K1 mouse INSR cells, signal with insulin divided by signal without insulin [cont'd]
T1 construct: whole, on cells;mature; also called muINSR/hINS complex
Procedure: (§1) Twenty five microliter aliquots of cells were plated into 96 well plates, mixed with 25 ul of antibody or PPE and incubated on ice for 1 h.
(§2) The cells were then washed once with FACS buffer and the binding of the antibody was detected by the addition of 25 ul of an appropriate fluorochrome-conjugated secondary antibody. […] After a final 15 min incubation on ice the cells were washed and the pellets resuspended in FACS buffer. The cells were analyzed on a FACSCAN™ (Becton-Dickinson, Milipitas, Calif.) and the data analyzed in both FLOWJO™ (Treestar, Ashland, Oreg.) and Microsoft Excel™.

mouse insulin receptor [2] = molecular target: T2, mouse insulin receptor (mouse, UniProt P15208 28-1372); assay: FACS, serum-starved CHO-K1 cells expressing mouse INSR, no insulin [cont'd]
T2 construct: whole, on cells; also called muINSR; mINSR
Procedure: as §1, §2

[3] = molecular target: T1, mouse insulin receptor complexed with …; assay: FACS, serum-starved CHO-K1 cells expressing mouse INSR, with insulin [cont'd]
human insulin receptor [4] = molecular target: T3, human insulin receptor (human, UniProt P06213 28-1382); assay: FACS, serum-starved CHO-K1 cells expressing human INSR, no insulin [cont'd]
T3 construct: whole, on cells; Uncomplexed receptor on serum-starved cells (CHOK1 transfectants or IM-9); also called hINSR; INSR
Procedure: as §1, §2

[5] = molecular target: T1, mouse insulin receptor complexed with …; assay: FACS, CHO-K1 mouse INSR cells, signal with insulin divided by signal without insulin
Procedure: as §1, §2

mouse insulin receptor [6] = molecular target: T2, mouse insulin receptor; assay: FACS, serum-starved CHO-K1 cells expressing mouse INSR, no insulin
[7] = molecular target: T4, human insulin receptor complexed with human insulin (human, UniProt P06213 28-1382; P01308 25-54; P01308 90-110); assay: FACS, CHO-K1 human INSR cells, signal with insulin divided by signal without insulin
T4 construct: whole, on cells;mature; also called hINSR-hINS complex; INS/INSR complex
Procedure: as §1, §2

[8] = molecular target: T1, mouse insulin receptor complexed with …; assay: FACS, serum-starved CHO-K1 cells expressing mouse INSR, with insulin
Procedure: as §1, §2

[9] = molecular target: T4, human insulin receptor complexed with …; assay: FACS, serum-starved CHO-K1 cells expressing human INSR, with insulin
human insulin receptor [10] = molecular target: T3, human insulin receptor; assay: FACS, serum-starved CHO-K1 cells expressing human INSR, no insulin
Procedure: as §1, §2

Binder	FACS area under log transformed data MFI ratio (+insulin/-insulin) [1]	FACS area under log transformed data MFI (mouse insulin receptor [2])	FACS area under log transformed data MFI [3]	FACS area under log transformed data MFI (human insulin receptor [4])	FACS area under log transformed data MFI ratio (+insulin/-insulin) [5]	FACS area under log transformed data MFI (mouse insulin receptor [6])	FACS area under log transformed data MFI ratio (+insulin/-insulin) [7]	FACS area under log transformed data MFI [8]	FACS area under log transformed data MFI [9]	FACS area under log transformed data MFI (human insulin receptor [10])
B1	1.04	257	267	399	–	–	–	–	–	–
B2	0.63	818	518	490	–	–	–	–	–	–
B3	0.53	508	267	226	–	–	–	–	–	–
B4	–	–	–	–	0.81	1300	0.64	1050	759	1190
B5	–	–	–	–	0.48	812	0.26	388	370	1410

Source: patent publication US20160009800A1 (XOMA US, published 2016)
